Source: US20240189439A1 (Novartis, published 2024)
Numbering of substitutions follows the chain as printed.

T1: cyno PMEL17 (cyno, UniProt A0A2K5WWN0 25-668)
T1 construct: whole, on cells; also called HKB11-cyno; HKB11-cyno-PMEL17
T1 sequence: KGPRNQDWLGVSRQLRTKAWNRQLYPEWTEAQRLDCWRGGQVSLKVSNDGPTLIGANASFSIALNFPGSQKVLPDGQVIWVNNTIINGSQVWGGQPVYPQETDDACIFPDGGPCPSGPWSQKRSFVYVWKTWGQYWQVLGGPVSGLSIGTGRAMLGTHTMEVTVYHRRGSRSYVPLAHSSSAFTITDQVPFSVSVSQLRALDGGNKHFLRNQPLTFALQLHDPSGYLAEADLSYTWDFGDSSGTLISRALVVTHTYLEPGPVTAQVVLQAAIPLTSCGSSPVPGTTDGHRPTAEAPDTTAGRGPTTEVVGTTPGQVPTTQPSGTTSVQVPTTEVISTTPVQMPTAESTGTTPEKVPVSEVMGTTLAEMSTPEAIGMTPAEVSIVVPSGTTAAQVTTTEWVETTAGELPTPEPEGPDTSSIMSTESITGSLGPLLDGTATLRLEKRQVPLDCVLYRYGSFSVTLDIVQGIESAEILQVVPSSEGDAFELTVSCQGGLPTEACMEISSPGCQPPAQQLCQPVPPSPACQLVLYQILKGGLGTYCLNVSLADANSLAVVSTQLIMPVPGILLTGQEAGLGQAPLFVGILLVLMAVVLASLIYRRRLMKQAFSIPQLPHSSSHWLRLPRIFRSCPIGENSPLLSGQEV

T2: mouse PMEL17 (mouse, UniProt Q60696 24-626)
T2 construct: whole, on cells; also called B16-F10 (mouse)
T2 sequence (looked up): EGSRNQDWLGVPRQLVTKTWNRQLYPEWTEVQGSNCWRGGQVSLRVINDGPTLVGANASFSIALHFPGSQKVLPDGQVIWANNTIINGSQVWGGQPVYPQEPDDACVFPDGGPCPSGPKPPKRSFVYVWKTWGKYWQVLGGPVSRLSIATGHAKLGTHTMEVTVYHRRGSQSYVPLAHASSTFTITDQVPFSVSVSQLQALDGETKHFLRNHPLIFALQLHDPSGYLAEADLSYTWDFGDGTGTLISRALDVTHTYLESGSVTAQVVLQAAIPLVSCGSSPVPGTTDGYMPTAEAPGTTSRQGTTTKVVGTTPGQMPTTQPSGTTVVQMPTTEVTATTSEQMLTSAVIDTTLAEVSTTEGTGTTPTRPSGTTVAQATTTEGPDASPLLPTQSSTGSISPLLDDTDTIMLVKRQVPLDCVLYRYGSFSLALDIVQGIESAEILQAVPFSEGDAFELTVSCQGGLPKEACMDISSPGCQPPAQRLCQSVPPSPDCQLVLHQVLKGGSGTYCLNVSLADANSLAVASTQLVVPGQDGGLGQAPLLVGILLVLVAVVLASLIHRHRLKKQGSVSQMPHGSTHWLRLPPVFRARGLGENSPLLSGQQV

B1: MOR024354 (antibody, V domains shown)
VH: QVQLLESGGGLVQPGGSLRLSCAASGFTFSSFGMSWVRQAPGKGLEWVSAISYSGSDTYYADSVKGRFTISRDNSKNTLYLQMNSLRAEDTAVYYCARDVGVMDYWGQGTLVTVSS
VL: SYELTQPLSVSVALGQTARITCSGDNLGTYYAHWYQQKPGQAPVLVIYSQSHRPSGIPERFSGSNSGNTATLTISRAQAGDEADYYCGAWDAPSPELVFGGGTKLTVL
notes: Tested as purified human IgG
B2: Y010356 (antibody, V domains shown)
VH: EVQLVESGGGLVKPGGSLRLSCAASGFTFSNYWISWVRQAPGKGLEWVGRIKSKTYGGTTDYAEPVKGRFTISRDDSKNTLYLQMNSLKTEDTAVYYCARVSGYYSHSGGFDVWGQGTLVTVSS
VL: DIQMTQSPSSLSASVGDRVTITCRASQGISNYLAWYQQKPGKVPKLLIYAASTLQSGVPSRFSGSGSGTDFTLTISSLQPEDVATYYCQKTWRTPGTFGQGTKVEIK
notes: Tested as purified human IgG
B3: MOR024353 (antibody, V domains shown)
VH: QVQLVQSGAEVKKPGSSVKVSCKASGGTFSDYAISWVRQAPGQGLEWMGGIIPIFGDANYAQKFQGRVTITADESTSTAYMELSSLRSEDTAVYYCAREGSSYFYMAYWGQGTLVTVSS
VL: SYELTQPLSVSVALGQTARITCSGDNIGSKLASWYQQKPGQAPVLVIYDDSNRPSGIPERFSGSNSGNTATLTISRAQAGDEADYYCAATAGDRWAYVFGGGTKLTVL
notes: Tested as purified human IgG
B4: Y010906 (antibody, V domains shown)
VH: EVQLVESGGGLVKPGGSLRLSCAASGFTFSNAWMSWVRQAPGKGLEWVGRIKSKTDAGTTDYAAPVKGRFTISRDDSKNTLYLQMNSLKTEDTAVYYCARDEYPWGWFDVWGQGTLVTVSS
VL: DIQMTQSPSSVSASVGDRVTITCRASQGISSWLAWYQQKPGKAPKLLIYAASSLQSGVPSRFSGSGSGTDFTLTISSLQPEDFATYYCQQYIFYPLTFGQGTKVEIK
notes: Tested as purified human IgG
B5: Y010415 (antibody, V domains shown)
VH: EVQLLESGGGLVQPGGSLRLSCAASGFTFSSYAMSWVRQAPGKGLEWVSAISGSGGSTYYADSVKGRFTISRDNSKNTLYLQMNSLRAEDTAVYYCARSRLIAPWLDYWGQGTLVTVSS
VL: B4 VL with V11L, G28S, W32Y, A34N, Y91V, I92Y, F93G, Y94S, L96P
notes: Tested as purified human IgG
B6: Y010903 (antibody, V domains shown)
VH: EVQLVESGGGLVKPGGSLRLSCAASGFTFSNAWMSWVRQAPGKGLEWVGRIKSKTDAGTTDYAAPVKGRFTISRDDSKNTLYLQMNSLKTEDTAVYYCARASHRLHSLFDVWGQGTLVTVSS
VL: B4 VL with S10T, V11L, G28S, A50D, Q55E, D70E, Y91G, I92L, L96H
notes: Tested as purified human IgG
B7: Y010910 (antibody, V domains shown)
VH: EVQLVESGGGLVKPGGSLRLSCAASGFTFSNAWMSWVRQAPGKGLEWVGRIKSKTDAGTTDYAAPVKGRFTISRDDSKNTLYLQMNSLKTEDTAVYYCARVASPSAPGGFDYWGQGTLVTVSS
VL: B2 VL with K90Q, T91S, W92L, R93F, T94A, G96F
notes: Tested as purified human IgG
B8: Y010900 (antibody, V domains shown)
VH: EVQLVESGGGLVKPGGSLRLSCAASGFTFSNAWMSWVRQAPGKGLEWVGRIKSKTDAGTTDYAAPVKGRFTISRDDSKNTLYLQMNSLKTEDTAVYYCARTIYPSAPSSSLDYWGQGTLVTVSS
VL: B2 VL with K90Q, T91L, W92I, R93F, T94F, G96L
notes: Tested as purified human IgG
B9: Y010355 (antibody, V domains shown)
VH: EVQLVESGGGLVKPGGSLRLSCAASGFTFSNYWISWVRQAPGKGLEWVGRIKSKTYGGTTDYAEPVKGRFTISRDDSKNTLYLQMNSLKTEDTAVYYCARTSRRSYAFDYWGQGTLVTVSS
VL: B4 VL with S10T, V11L, G28S, A50D, Q55E, D70E, Y91I, I92T, F93R, L96V
notes: Tested as purified human IgG
B10: Y010417 (antibody, V domains shown)
VH: EVQLVQSGAEVKKPGESLKISCKGSGYSFTSYWIGWVRQMPGKGLEWMGIIYPGDSDTRYSPSFQGQVTISADKSISTAYLQWSSLKASDTAMYYCARGSSAASGLSGDLWGQGTLVTVSS
VL: B4 VL with V11L, G28S, W32Y, A34N, Y91D, I92Y, F93Y, Y94S, L96F
notes: Tested as purified human IgG
B11: Y010429 (antibody, V domains shown)
VH: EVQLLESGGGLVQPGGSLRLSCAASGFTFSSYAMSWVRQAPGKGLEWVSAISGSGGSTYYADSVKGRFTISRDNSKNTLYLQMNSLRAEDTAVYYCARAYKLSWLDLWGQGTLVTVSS
VL: B4 VL with V11L, G28S, W32Y, A34N, Y91V, I92W, F93Y, Y94A, L96V
notes: Tested as purified human IgG

target: T1, cyno PMEL17; test: FACS titration of IgG on HKB11-cyno-PMEL17 cells, Alexa Fluor detection antibody
Protocol: (§1) Purified IgGs were titrated on a variety of PMEL17 expressing and PMEL17 non expressing cell lines (for control) to determine EC50 values. Cells were harvested using Accutase, adjusted to ˜4×10^6 cells/ml into FACS buffer (PBS, 3% FCS and 0.02% Na-Azide) and kept on ice to avoid internalization. 15 μl of cell suspension/well were transferred into 384 well V-bottom plates (Greiner, Cat #781280) and incubated with 15 μl of IgGs at different concentrations (most commonly from 200 to 3.5×10-3 nM) for 1 hour at 4° C., gently shaking. Following incubation, cells were washed three times with FACS buffer. After each washing step, cells were centrifuged (250×g, 5 min, 4° C.) and carefully resuspended. 15 p of detection antibody conjugated to PE (PE-conjugated goat anti-human IgG, F(ab′)₂ fragment specific, 1:150 in FACS buffer; Jackson Immuno Research, #109-116-097) or Alexa Fluor (Alexa Fluor-conjugated goat anti-human IgG, F(ab′)2 fragment specific, 1:150 in FACS buffer; Jackson Immuno Research, #109-606-097) were added and samples were incubated for 45 minutes to 1 hour on ice in the dark, gently shaking. After 3 washing steps, cells were resuspended in 30 μl of FACS buffer and samples were measured using the IntelliCyt HTFC device. EC50 values were calculated using the Graphpad Prism software.

Row | EC50 [nM] | Binder
1 | 2.1 | B1
2 | 4.5 | B2
3 | 1.6 | B3
4 | 2 | B4
5 | 5.4 | B5
6 | 2 | B6
7 | 3.5 | B7
8 | 1.2 | B8
9 | 3.9 | B9
10 | 6.3 | B10
11 | 10.7 | B11

target: rat PMEL17 (rat, UniProt D3ZED8 73-680); test: FACS titration of IgG on HKB11-rat PMEL17 cells, Alexa Fluor detection antibody
Sequence (D3ZED8 entry or part of it): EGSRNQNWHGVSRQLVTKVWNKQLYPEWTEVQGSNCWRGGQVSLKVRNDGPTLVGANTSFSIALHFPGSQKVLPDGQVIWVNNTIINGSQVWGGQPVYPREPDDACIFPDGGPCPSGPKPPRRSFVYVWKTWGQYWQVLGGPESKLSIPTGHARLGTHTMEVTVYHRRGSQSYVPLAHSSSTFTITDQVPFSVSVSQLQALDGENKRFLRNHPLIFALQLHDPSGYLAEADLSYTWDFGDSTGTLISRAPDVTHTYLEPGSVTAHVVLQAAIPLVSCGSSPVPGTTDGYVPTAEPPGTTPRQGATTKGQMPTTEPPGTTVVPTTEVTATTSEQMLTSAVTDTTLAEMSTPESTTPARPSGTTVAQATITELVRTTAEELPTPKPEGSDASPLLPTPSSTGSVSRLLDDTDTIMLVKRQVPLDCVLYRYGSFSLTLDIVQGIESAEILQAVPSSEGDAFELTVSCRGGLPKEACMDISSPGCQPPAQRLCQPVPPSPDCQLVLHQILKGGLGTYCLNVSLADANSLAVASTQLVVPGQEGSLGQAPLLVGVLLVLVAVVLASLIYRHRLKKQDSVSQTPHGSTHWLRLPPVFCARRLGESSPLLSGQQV
Protocol: as §1

Row | EC50 [nM] | Binder
12 | 2.4 | B1
13 | 1.4 | B2
14 | 7.5 | B3
15 | 21.7 | B4
16 | 0.4 | B5
17 | 5.6 | B6
18 | 13.7 | B7
19 | 9.3 | B8
20 | 0.8 | B9
21 | 1.5 | B11

target: T2, mouse PMEL17; test: FACS titration of IgG on B16-F10 cells (mouse melanoma), Alexa Fluor detection antibody
Protocol: as §1

Row | EC50 [nM] | Binder
22 | 1.4 | B2
23 | 140 | B4
24 | 928 | B6
25 | 41.1 | B7
26 | 0.8 | B9
27 | 60.2 | B11
